The supplement of paper PMC10126150
± gives the standard deviation of the averaged measurements.

system: ATP; assay: switch fluorescence ratio, 500 uM ATP over buffer (Cy3 cluster intensity, sum of 5 cycles each) (fold (ratio)); higher = stronger signal-on switching upon ATP binding; sequences stand for … in TCGTCGGCAGCGTCAGATGTGTATAAGAGACAGTTTTTTTTTTTTTTTTTTTTTTTTT…TC; conditions: aptamer strand: ATP DNA aptamer (quencher-CACCTGGGGGAGTATTGCGGAGGAAGG + anchor), 100 nM annealed; ATP concentration: 500 uM
How it was run: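 The fluorescence ratio divides summed target-cycle Cy3 intensity by summed buffer-cycle Cy3 intensity for each cluster and is averaged per switch-domain sequence. Cy3-labelled switching-strand clusters on a modified Illumina MiSeq flow-cell were annealed to 100 nM quencher-labelled ATP aptamer, then imaged in selection buffer and again after 15 min with 500 uM ATP at 22 °C. Five such cycles were run, with NaOH stripping and re-annealing between them, and clusters outside 100-1000 RFU were excluded.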
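Further: ATP exposure 15 min at 22 °C before imaging.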

| Sequence | switch fluorescence ratio |
| --- | --- |
| TTTGTTTGG | 1 ± 0.017 |
| TTTGTTTGGA | 1.01 ± 0.046 |
| TTTGTTTTAC | 1.18 ± 0.21 |
| TTTGTTTTTA | 1.02 ± 0.041 |
| TTTGTTTTTG | 1 ± 0.026 |
| TTTTAAAAGT | 1 ± 0.03 |
| TTTTAAAGGT | 1.01 ± 0.024 |
| TTTTAAATGC | 1.07 ± 0.13 |
| TTTTAAATGG | 1.06 ± 0.052 |
| TTTTAACCGA | 1.08 ± 0.034 |
| TTTTAACTAA | 1.005 ± 0.0046 |
| TTTTAAGAGG | 1.01 ± 0.046 |
| TTTTAAGGCA | 1.03 ± 0.031 |
| TTTTAAGGTA | 0.996 ± 0.026 |
| TTTTAAGGTC | 1.019 ± 0.0034 |
| TTTTAAGTCT | 1.02 ± 0.0036 |
| TTTTAAGTGG | 0.991 ± 0.023 |
| TTTTAAGTGT | 1 ± 0.045 |
| TTTTAATCCA | 1.01 ± 0.033 |
| TTTTAATGCA | 0.977 ± 0.018 |
| TTTTAATTTC | 0.955 ± 0.14 |
| TTTTACCCGT | 1.01 ± 0.013 |
| TTTTACCGTT | 1.02 ± 0.015 |
| TTTTACGATG | 1 ± 0.012 |
| TTTTACGTGG | 0.9938 ± 0.0019 |
| TTTTACGTTA | 1.23 ± 0.11 |

| Sequence | switch fluorescence ratio |
| --- | --- |
| TTTTACGTTT | 1.04 ± 0.12 |
| TTTTACTTCT | 1.04 ± 0.062 |
| TTTTAGAAAT | 1.98 ± 1.3 |
| TTTTAGAAGG | 0.9797 ± 0.0062 |
| TTTTAGAGTA | 1.003 ± 0.009 |
| TTTTAGATAG | 1.06 ± 0.11 |
| TTTTAGATGG | 1.2 ± 0.2 |
| TTTTAGCTGG | 1 ± 0.015 |
| TTTTAGGGTA | 1.03 ± 0.017 |
| TTTTAGGTAG | 0.99 ± 0.0029 |
| TTTTAGGTGT | 1.28 ± 0.26 |
| TTTTAGTACT | 0.99 ± 0.036 |
| TTTTAGTAGT | 1.008 ± 0.01 |
| TTTTAGTTCC | 1.05 ± 0.018 |
| TTTTAGTTCT | 1.25 ± 0.42 |
| TTTTAGTTGG | 0.954 ± 0.038 |
| TTTTAGTTTT | 1 ± 0.031 |
| TTTTATAATG | 1.038 ± 0.0011 |
| TTTTATAT | 0.98 ± 0.03 |
| TTTTATATAC | 1.14 ± 0.076 |
| TTTTATATGT | 1.02 ± 0.028 |
| TTTTATCAAT | 1.003 ± 0.0076 |
| TTTTATCTGT | 1.01 ± 0.091 |
| TTTTATGAAA | 0.997 ± 0.012 |
| TTTTATGAAG | 1.04 ± 0.02 |
| TTTTATGCGA | 1.01 ± 0.02 |

| Sequence | switch fluorescence ratio |
| --- | --- |
| TTTTATGGGC | 1.01 ± 0.025 |
| TTTTATGTCA | 1.03 ± 0.051 |
| TTTTATTTTT | 0.997 ± 0.028 |
| TTTTCAACAC | 1.04 ± 0.033 |
| TTTTCAAGTA | 0.9789 ± 0.0094 |
| TTTTCAAGTC | 1.05 ± 0.15 |
| TTTTCACTGG | 1.01 ± 0.017 |
| TTTTCAGTAG | 0.9996 ± 0.0039 |
| TTTTCATCGC | 1.18 ± 0.18 |
| TTTTCATGAT | 0.991 ± 0.022 |
| TTTTCATGGT | 1.01 ± 0.035 |
| TTTTCATGTG | 0.995 ± 0.027 |
| TTTTCATTAC | 1.26 ± 0.069 |
| TTTTCCAAGG | 1.06 ± 0.031 |
| TTTTCCAATG | 1.02 ± 0.017 |
| TTTTCCACGG | 1.21 ± 0.16 |
| TTTTCCATTT | 0.99 ± 0.023 |
| TTTTCCCATT | 1.02 ± 0.075 |
| TTTTCCCGAA | 0.967 ± 0.026 |
| TTTTCCCGGG | 1.13 ± 0.15 |
| TTTTCCTGCT | 1.07 ± 0.082 |
| TTTTCGACTA | 0.97 ± 0.043 |
| TTTTCGATTT | 1.42 ± 1 |
| TTTTCGCTAT | 2.29 ± 1.6 |
| TTTTCGGCTC | 1.04 ± 0.048 |
| TTTTCGGGAT | 1.19 ± 0.42 |

| Sequence | switch fluorescence ratio |
| --- | --- |
| TTTTCGGTTT | 1 ± 0.051 |
| TTTTCGTCCT | 1.18 ± 0.18 |
| TTTTCGTGTT | 1 ± 0.032 |
| TTTTCGTTTT | 1.04 ± 0.082 |
| TTTTCTGAGG | 1.01 ± 0.044 |
| TTTTCTTGAA | 0.9852 ± 0.0038 |
| TTTTCTTTGC | 1.03 ± 0.042 |
| TTTTCTTTTT | 1.06 ± 0.14 |
| TTTTGAAGTG | 1.02 ± 0.034 |
| TTTTGAAGTT | 1 ± 0.039 |
| TTTTGAATCT | 0.953 ± 0.033 |
| TTTTGAATTG | 0.9841 ± 0.005 |
| TTTTGACAGT | 0.996 ± 0.039 |
| TTTTGACATT | 1.05 ± 0.032 |
| TTTTGACCGA | 0.976 ± 0.073 |
| TTTTGACGAG | 1.016 ± 0.0033 |
| TTTTGACGTT | 1.04 ± 0.042 |
| TTTTGAGATA | 0.97489 ± 3.4e-05 |
| TTTTGAGGAC | 1.034 ± 0.0035 |
| TTTTGAGGGA | 0.9877 ± 0.002 |
| TTTTGATAGT | 0.991 ± 0.026 |
| TTTTGATCCG | 1.09 ± 0.082 |
| TTTTGATTCT | 1.01 ± 0.028 |
| TTTTGCAAAT | 1.13 ± 0.11 |
| TTTTGCACTT | 1.022 ± 0.0012 |
| TTTTGCAGGA | 1.05 ± 0.14 |

| Sequence | switch fluorescence ratio |
| --- | --- |
| TTTTGCATTG | 1.07 ± 0.058 |
| TTTTGCCGTT | 1.01 ± 0.019 |
| TTTTGCGAAC | 1.94 ± 1.2 |
| TTTTGCGATT | 1.015 ± 0.0065 |
| TTTTGCGCCG | 1.06 ± 0.06 |
| TTTTGCGGGA | 1.01 ± 0.057 |
| TTTTGCGTCT | 1.06 ± 0.071 |
| TTTTGCTGTA | 1.04 ± 0.099 |
| TTTTGCTTGT | 0.996 ± 0.015 |
| TTTTGCTTTT | 0.998 ± 0.027 |
| TTTTGGAACG | 0.99 ± 0.031 |
| TTTTGGAAGC | 1.03 ± 0.034 |
| TTTTGGAAGT | 0.993 ± 0.042 |
| TTTTGGACGC | 1.26 ± 0.43 |
| TTTTGGATAA | 1.016 ± 0.0051 |
| TTTTGGATGC | 1.05 ± 0.045 |
| TTTTGGCAAC | 1.04 ± 0.079 |
| TTTTGGCCGT | 1.1 ± 0.15 |
| TTTTGGCCTT | 0.997 ± 0.015 |
| TTTTGGCGCA | 1.01 ± 0.0046 |
| TTTTGGCGCT | 1.005 ± 0.008 |
| TTTTGGCGTA | 1.04 ± 0.037 |
| TTTTGGGCCC | 1.04 ± 0.076 |
| TTTTGGGCTT | 1.12 ± 0.22 |
| TTTTGGGGC | 1.04 ± 0.013 |
| TTTTGGGGGG | 1.02 ± 0.081 |

| Sequence | switch fluorescence ratio |
| --- | --- |
| TTTTGGGTCC | 1.06 ± 0.04 |
| TTTTGGGTTA | 0.992 ± 0.043 |
| TTTTGGGTTG | 1.03 ± 0.076 |
| TTTTGGTATA | 1.05 ± 0.055 |
| TTTTGGTCCG | 1.034 ± 0.0074 |
| TTTTGGTGG | 0.974 ± 0.033 |
| TTTTGGTTAG | 0.983 ± 0.015 |
| TTTTGGTTTG | 1 ± 0.034 |
| TTTTGTACGC | 1.097 ± 0.0065 |
| TTTTGTAGCT | 0.963 ± 0.023 |
| TTTTGTCAAA | 1.02 ± 0.035 |
| TTTTGTCACT | 1.034 ± 0.0031 |
| TTTTGTGTTC | 0.993 ± 0.027 |
| TTTTGTTAGA | 1.03 ± 0.022 |
| TTTTGTTGTG | 0.999 ± 0.034 |
| TTTTGTTTCA | 1 ± 0.022 |
| TTTTGTTTCG | 1.01 ± 0.028 |
| TTTTGTTTGT | 1.01 ± 0.037 |
| TTTTGTTTT | 1.02 ± 0.027 |
| TTTTGTTTTC | 1.11 ± 0.23 |
| TTTTTAAA | 0.988 ± 0.017 |
| TTTTTAAAGT | 0.993 ± 0.026 |
| TTTTTAACTC | 1.03 ± 0.021 |
